# Measurements as given in patent US20060239990A1, “Protein Arginine N-Methyltransferase 2 (PRMT-2)” (priority 2003, published 2006).
# Columns and labels:
# HIV-1 LTR = assay: HIV-1 reporter transcription, transient co-transfection; assay type: cell-based, human
# Experimental: Cell culture, transfection, and reporter gene assays. The E1A-transformed, human kidney cell line, 293, and NIH-3T3 cells were maintained in Dulbecco's Modified Eagle Medium (DMEM) supplemented with 10% fetal calf serum and penicillin-streptomycin at 37° C. in 5% carbon dioxide in tissue culture grade Petri dishes. PRMT-2−/− mouse embryo fibroblasts (MEFs) and wild type MEFs were prepared from day 13.5 embryos and maintained in DMEM supplemented with 10% fetal calf serum. MEFs at passage 4 were used in this experiment. Lipofectamine Plus™ reagent (Boehringer Mannheim) was used to transfect both 293 and NIH-3T3 cells according to directions from the manufacturer. […] TNF-α stimulation of cells was done using recombinant TNF-α (200 U/ml) for 12 hours. Transfected cells were harvested at 36 hours, and CAT activity was assayed on 10 to 100 μg of protein from whole cell extracts. CAT assays were performed essentially as described in Leung, K. & Nabel, G. J. Nature 333, 776-778 (1988). To analyze the κB-reporter activity in MEFs, cells were transfected with the reporter (2×kB-Luc) and PRL-TK vector (Promega) using FuGENE6 transfection reagent (Roche). Luciferase activity was analyzed by Dual-Luciferase Reporter Assay System (Promega).
# To determine whether PRMT-1, 2 or 3 could affect NF-κB function, their potential to regulate effects on transcription of the human immunodeficiency virus type 1 (HIV-1) was examined. Transient co-transfections were performed using PRMT1, PRMT2 and PRMT3 expression plasmids with an HIV-1 reporter plasmid in the human renal epithelial cell line, 293T.
# To determine its dependence on NF-κB, human immunodeficiency virus type 1 (HIV-1) reporter plasmids with wild-type (WT) or mutant (ΔκB) sites were co-transfected transiently with control or PRMT2 expression plasmids in the different cell lines. […] The KB effect was dose-dependent and was also observed with other inducers of NF-κB, including phorbol […] (PMA) (FIG. 2B, right panel).
# 293 cells = assay: TNF-α-induced apoptosis in transfected 293 cells; assay type: cell-based, human; conditions: TNF-α 1000 U/ml 24 hours
# Experimental: Apoptosis analysis. Apoptosis in PRMT-2-expressing 293 cells was analyzed as follows. Cells were seeded at 2.5×10^5 per well in 6 well plates. The next day, empty vector, mutant IκBα (S32A/S36A), RelA or PRMT-2 was co-transfected with CD2 expression vector. Twenty-four hours after transfection cells were stimulated with TNF-α (1000 U/ml) for 24 hours. Both floating and attached cells in each well were harvested by EDTA treatment. Cells were stained with APC-labeled anti-CD2 antibody (BD Bioscience) in SM buffer (PBS containing 2% FCS). After washing twice with PBS, cells were stained with FITC-labeled Annexin V and propidium iodide using Annexin V FITC Apoptosis Detection Kit (Oncogene), and analyzed by flow cytometry (FACS Caliber, BD Bioscience).
# E2F1 = assay: E2F reporter assay (GAL4-E2F1 activator, luciferase); assay type: cell-based
# Experimental: HeLa cells, U2OS cells, and Saos2 cells were seeded at a density of 5×10^4 per well in 24-well plates. Cells were transfected 24 hours later with the indicated plasmid and with 20 ng of pRL-TK (Promega) as an internal control to normalize transfection efficiency. The amount of CMV promoter in the transfection was kept constant using empty vector. Cells were harvested at 30 or 36 hour after transfection and luciferase activity was analyzed by Dual-Luciferase Reporter Assay System (Promega). Luciferase activity was measured as a ratio of Firefly to Renilla. To study endogenous E2F activity in MEFs, PRMT-2^+/+ or PRMT-2^−/− MEFs were seeded at a density of 3×10^5 per well in 6-well plates. Cells were transfected 24 hours later with 3 μg of E2F4B-Luc and 10 ng of pRL-TK plasmid. Cells were harvested at 36 hour after transfection and analyzed for luciferase activity as described above.
molecule,measurement,setting,value
"PRMT2: human PRMT-2 polypeptide, SEQ ID NO:2, expressed from pVR1012 vector with HA-tag (protein, listed as Homo sapiens, HA tag) MATSGDCPRSESQGEEPAECSEAGLLQEGVQPEEFVAIADYAATDETQLSFLRGEKILILRQTTADWWWGERAGCCGYIPANHVGKHVDEYDPEDTWQDEEYFGSYGTLKLHLEMLADQPRTTKYHSVILQNKESLTDKVILDVGCGTGIISLFCAHYARPRAVYAVEASEMAQHTGQLVLQNGFADIITVYQQKVEDVVLPEKVDVLVSEWMGTCLLFEFMIESILYARDAWLKEDGVIWPTMAALHLVPCSADKDYRSKVLFWDNAYEFNLSALKSLAVKEFFSKPKYNHILKPEDCLSEPCTILQLDMRTVQISDLETLRGELRFDIRKAGTLHGFTAWFSVHFQSLQEGQPPQVLSTGPFHPTTHWKQTLFMMDDPVPVHTGDVVTGSVVLQRNPVWRRHMSVALSWAVTSRQDPTSQKVGEKVFPIWR",inhibition of HIV-1 transcription,"HIV-1 LTR; 293T cells, expression plasmid co-transfected with HIV-1 reporter plasmid",about 50 fold
same,HIV-1 transcription from wild-type reporter,"HIV-1 LTR; 293 cells, basal and TNF-α-dependent",significantly inhibited both basal and TNF-α-dependent HIV-1 transcription
same,susceptibility to TNF-induced cell death,293 cells,increased their susceptibility to TNF-induced cell death
same,E2F1-induced promoter activity,"E2F1; HeLa cells, in the presence of the E2F1 activator",repressed E2F1-induced promoter activity in a dose-dependent manner
same,E2F1 activity,"E2F1; Saos 2 cells (RB-deficient), without RB",did not repress E2F1 activity
same,E2F repression,E2F1; Saos 2 cells co-transfected with RB,E2F repression by PRMT2 in a dose-dependent manner was observed
